Data published in PMC9931213, “Structural basis for ATG9A recruitment to the ULK1 complex in mitophagy initiation” (Science Advances, 2023).

B1: ATG13^HORMA (1–197):TwinStrep-Flag (TSF)–ATG101 complex (complex, human)
chain 1: METDLNSQDRKDLDKFIKFFALKTVQVIVQARLGEKICTRSSSSPTGSDWFNLAIKDIPEVTHEAKKALAGQLPAVGRSMCVEISLKTSEGDSMELEIWCLEMNEKCDKEIKVSYTVYNRLSLLLKSLLAITRVTPAYRLSRKQGHEYVILYRIYFGEVQLSGLGEGFQTVRVGTVGTPVGTITLSCAYRINLAFMS
chain 2: MNCRSEVLEVSVEGRQVEEAMLAVLHTVLLHRSTGKFHYKKEGTYSIGTVGTQDVDCDFIDFTYVRVSSEELDRALRKVVGEFKDALRNSGGDGLGQMSLEFYQKKKSRWPFSDECIPWEVWTVKVHVVALATEQERQICREKVGEKLCEKIINIVEVMNRHEYLPKMPTQSEVDNVFDTGLRDVQPYLYKISFQITDALGTSVTTTMRRLIKDTLAL
notes: ATG101, human; Heterodimer of two HORMA domains formed beforehand by co-expression; also called ATG13^HORMA:ATG101; source: HEK GnTi- cells, transfected, purified (Strep-Tactin resin, Superdex 200); not shown: TwinStrep-Flag (TSF), N-terminal, kept
B2: ATG13^HORMA (1–197), no tag (domain or fragment, human, UniProt O75143 1-197, looked up)
chain: B1 chain 1
B3: ATG9A HDIR (828–839)–GSDEA–ATG101 (1–198) fusion construct (other, human)
chain: SEDELPPQVHKVGSDEAMNCRSEVLEVSVEGRQVEEAMLAVLHTVLLHRSTGKFHYKKEGTYSIGTVGTQDVDCDFIDFTYVRVSSEELDRALRKVVGEFKDALRNSGGDGLGQMSLEFYQKKKSRWPFSDECIPWEVWTVKVHVVALATEQERQICREKVGEKLCEKIINIVEVMNRHEYLPKMPTQSEVDNVFDTGLRDVQPYLYKISFQITD
notes: flexible linker of five residues; ATG101, human, residues 1-198; also called ATG9A HDIR-ATG101 fusion construct; not shown: GST, N-terminal, cleaved
B4: MBP-ATG9A (692–839), monomeric (domain or fragment, human, UniProt Q7Z3C6 692-839, looked up)
chain: QLQSLVLSEYASTEMSLHALYMHQLHKQQAQAEPERHVWHRRESDESGESAPDEGGEGARAPQSIPRSASYPCAAPRPGAPETTALHGGFQRRYGGITDPGTVPRVPSHFSRLPLGGWAEDGQSASRHPEPVPEEGSEDELPPQVHKV
notes: source: HEK GnTi- cells, transfected, purified (amylose resin, Superose 6); not shown: MBP, N-terminal, kept

Assays:
Conditions in all cases: both partners purified
[1] = molecular target: T1, MBP-ATG9A (full-length autophagy-related protein 9A) (human, UniProt Q7Z3C6 1-839); assay: pull-down; recombinant MBP-ATG9A constructs (1.2 μM) on amylose resin with TSF-ATG101:ATG13 (1–197) complex (3 μM), 4°C overnight, ITC buffer (25 mM Hepes pH 7.5, 150 mM NaCl, 1 mM MgCl2, 1 mM TCEP); full-length MBP-ATG9A in DDM/CHS micelles (0.05% DDM/CHS); SDS-PAGE
T1 construct: In detergent (DDM/CHS) micelles; also called wild-type MBP-ATG9A; ATG9A wild type (WT); source: HEK GnTi- cells, transfected; not shown: MBP, N-terminal, kept
T1 sequence (looked up): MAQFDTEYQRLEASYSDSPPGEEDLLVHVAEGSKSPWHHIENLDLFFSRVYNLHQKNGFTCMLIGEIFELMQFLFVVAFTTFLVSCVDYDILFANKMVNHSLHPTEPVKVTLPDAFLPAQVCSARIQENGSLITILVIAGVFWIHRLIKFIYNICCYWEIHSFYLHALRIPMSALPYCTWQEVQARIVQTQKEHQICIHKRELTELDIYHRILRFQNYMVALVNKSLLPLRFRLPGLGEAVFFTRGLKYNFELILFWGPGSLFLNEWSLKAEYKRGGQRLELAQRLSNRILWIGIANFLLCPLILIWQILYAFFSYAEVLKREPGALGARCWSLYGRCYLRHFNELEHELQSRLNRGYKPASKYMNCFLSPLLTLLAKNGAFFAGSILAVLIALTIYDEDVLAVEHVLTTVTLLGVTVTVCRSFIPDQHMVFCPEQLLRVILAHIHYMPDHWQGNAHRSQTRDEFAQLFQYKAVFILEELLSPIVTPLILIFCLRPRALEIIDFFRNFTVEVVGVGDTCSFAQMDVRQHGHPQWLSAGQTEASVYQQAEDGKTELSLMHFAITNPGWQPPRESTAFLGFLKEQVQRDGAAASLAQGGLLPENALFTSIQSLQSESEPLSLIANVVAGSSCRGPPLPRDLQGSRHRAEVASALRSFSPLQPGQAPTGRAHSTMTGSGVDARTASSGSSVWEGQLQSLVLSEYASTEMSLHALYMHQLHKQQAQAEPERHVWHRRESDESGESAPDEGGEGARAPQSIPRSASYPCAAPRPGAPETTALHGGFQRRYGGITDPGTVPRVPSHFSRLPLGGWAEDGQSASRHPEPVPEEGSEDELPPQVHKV

[2] = molecular target: T2, ATG101 (1–198) as in the crystallised fusion (human, UniProt Q9BSB4 1-198); assay: crystal structure; ATG9 HDIR (828–839)–fused ATG101 (1–198):ATG13 (1–197) complex, 6 mg/ml; sitting drop, 288 K, 0.1 M Hepes pH 7.5, 0.2 M NaCl, 12% PEG8000; 2.4 Å
T2 construct: ATG101, human, residues 1-198; written on its own for the pairs that touch; also called ATG101 HORMA domain; source: HEK 293GnTi cells, as the C-terminal part of the fusion m32
T2 sequence (looked up): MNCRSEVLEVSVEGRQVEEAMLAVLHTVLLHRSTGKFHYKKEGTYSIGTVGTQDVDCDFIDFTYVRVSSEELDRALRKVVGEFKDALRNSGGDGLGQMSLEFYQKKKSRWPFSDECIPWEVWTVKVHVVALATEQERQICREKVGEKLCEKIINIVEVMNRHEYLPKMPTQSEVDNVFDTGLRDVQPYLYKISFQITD

[3] = molecular target: B2; assay: as above
[4] = molecular target: B1; assay: pull-down; recombinant MBP-ATG9A constructs (1.2 μM) on amylose resin with TSF-ATG101:ATG13 (1–197) complex (3 μM), 4°C overnight, ITC buffer (25 mM Hepes pH 7.5, 150 mM NaCl, 1 mM MgCl2, 1 mM TCEP); full-length MBP-ATG9A in DDM/CHS micelles (0.05% DDM/CHS); SDS-PAGE

Q: Does B1 bind [1]?
A: binds

Q: Does B2 bind [2]?
A: binds

Q: Does B3 bind [3]?
A: binds

Q: Does B4 bind [4]?
A: binds
